According to article PMC10952621, “Long QT syndrome‐associated calmodulin variants disrupt the activity of the slowly activating delayed rectifier potassium channel” (The Journal of Physiology, 2023):

Target: human wild-type calmodulin (CaM-WT) (human, UniProt P0DP23 2-149)
Assay: ITC; Kv7.1-HA peptide titrated into CaM (~50 uM) in the cell; 50 mM Na-HEPES, 100 mM KCl, 2 mM MgCl2, pH 7.5, 5 mM CaCl2; 25 °C; one-site binding model
Details: both partners purified

B1: Kv7.1-HA(370-389) peptide, helix A of the KCNQ1 C-terminus (peptide)
peptide: AAASLIQTAWRCYAAENPDS
notes: source: synthetic peptide (GenicBio, HPLC purified, >95% purity)
Kd: ~96 µM
